# Literature values as cited in US11911476B2, “Process for preparing a drug delivery composition” (PK MED SAS, priority 2017, dated 2024).
# Conditions: temperature at which half of the drug loses its activity
row,Substance,denaturation temperature
1,Adalimumab,about 75 °C
2,lysozyme,76 °C
